The source of these data is patent US20250196025A1.

The target of assay [1] is IgG (Gammanorm). In words: SPR (Biacore), variant amine-coupled to CM5 chip, Gammanorm as analyte, 1:1 kinetic fit.
Assay [2] deals with IgG (Gammanorm). Nature of the assay: SPR (Biacore), variant amine-coupled to CM5 chip, Gammanorm as analyte, steady state affinity fit.
The target in assay [3] is dAb (VL single domain antibody). Nature of the assay: column dynamic binding capacity at 10% breakthrough, dAb, 4 min residence time, duplicate columns.
For assay [4] the target is unchanged. Nature of the assay: column dynamic binding capacity at 10% breakthrough, dAb, 6 min residence time, duplicate columns.
For assay [5] the target is unchanged. Nature of the assay: column dynamic binding capacity at 10% breakthrough, dAb, 10 min residence time, duplicate columns.
For assay [6] the target is unchanged. In words: column dynamic binding capacity at 10% breakthrough, dAb, 2.4 min residence time, duplicate columns.
Assay [7] has as its target Fab-fragment produced from Trastuzumab by papain cleavage. In words: column dynamic binding capacity at 10% breakthrough, Fab-fragment, 1 min residence time, duplicate columns.
For assay [8] the target is unchanged. Nature of the assay: column dynamic binding capacity at 10% breakthrough, Fab-fragment, 6 min residence time, duplicate columns.
The target is the same in assay [9]. In words: column dynamic binding capacity at 10% breakthrough, Fab-fragment, 10 min residence time, duplicate columns.
The target of a further assay is Herceptin (Trastuzumab). Nature of the assay: column dynamic binding capacity at 10% breakthrough, Trastuzumab, 4 min residence time, at CIP cycle 35 (0.1 M NaOH).
In assay [10] the target is Adalimumab. Nature of the assay: column dynamic binding capacity at 10% breakthrough, 4 min residence time; ligand density about 14.3 mg/ml.
Assay [11] has as its target Adalimumab. In words: column dynamic binding capacity at 10% breakthrough, 6 min residence time; ligand density about 14.3 mg/ml.
Assay [12] concerns the target Fab-fragment produced from Trastuzumab by papain cleavage. In words: column dynamic binding capacity at 10% breakthrough, Fab-fragment, 6 min residence time; ligand density 10.6.
For assay [13] the target is unchanged. Nature of the assay: column dynamic binding capacity at 10% breakthrough, Fab-fragment, 6 min residence time; ligand density 11.0.

Chain of Pentamer of SEQ ID NO:3 (ligand B2-1, pAM237) immobilized on cross-linked agarose beads (prototype separation matrix) (chain): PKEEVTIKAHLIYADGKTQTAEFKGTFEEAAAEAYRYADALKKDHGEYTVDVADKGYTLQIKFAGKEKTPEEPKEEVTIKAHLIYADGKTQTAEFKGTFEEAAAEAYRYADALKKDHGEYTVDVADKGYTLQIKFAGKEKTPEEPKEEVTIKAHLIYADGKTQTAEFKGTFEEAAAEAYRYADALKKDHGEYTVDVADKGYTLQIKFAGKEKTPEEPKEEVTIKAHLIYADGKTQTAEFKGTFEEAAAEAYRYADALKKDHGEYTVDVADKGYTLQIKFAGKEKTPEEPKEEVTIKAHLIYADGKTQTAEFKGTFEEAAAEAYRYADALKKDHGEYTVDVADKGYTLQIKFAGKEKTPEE

Turning to “Protein L variant pAM240 (domain B5b-1; H10, H45, Q60)”, the Kd with IgG (Gammanorm) [1] was 15 nM; in the assay with IgG (Gammanorm) [2], 79 nM.
Taken in the same sequence, the figures for “Protein L variant pAM255 (domain C1-2; H10, H45, Y60)” were 146 nM and 324 nM.
For “Protein L variant pAM242 (domain C1b-1; H10, H45, Q60)” the same measures were 49 nM and 116 nM.
As for “Protein L construct pAM114 (wt B3 domain; N10, N45, N60)”, the figures for the Kd in the assay with IgG (Gammanorm) [1] and with IgG (Gammanorm) [2] were 11 nM and 46 nM, respectively.
For “Protein L variant pAM241 (domain C1-1; H10, H45, Q60)” the same measures were 87 nM and 187 nM.
Taken in the same sequence, the figures for “Protein L variant pAM256 (domain C1b-2; H10, H45, Y60)” were 59 nM and 134 nM.
As to TOYOPEARL® AF-r Protein L-650F (Tosoh), the DBC Qb10% was 25.2 in assay [3]; 26.3 in assay [4]; 26 in assay [5]; 23.7 in [6]; 43.7 in [7]; 57.7 in assay [8]. The substance further displayed a DBC Qb10% in assay [9] of 58.1.
For the substance “Protein L variant pAM250 (domain B1b-2; H10, H45, Y60)”, the Kd with IgG (Gammanorm) [1] was 40 nM; in the assay with IgG (Gammanorm) [2] it was 99 nM.
As to “Capto™ L (Cytiva™), commercial Protein L matrix”, the DBC Qb10% in assay [3] was determined as 16.2; in assay [4] it was 16.4; in [5], 16.7; in assay [6], 15.8; in assay [7], 16.9; with Herceptin (Trastuzumab), 21.
In the case of “Protein L variant pAM254 (domain B5b-2; H10, H45, Y60)”, the values for the Kd in the assay with IgG (Gammanorm) [1] and with IgG (Gammanorm) [2] were 7 nM and 41 nM, respectively.
For “Protein L variant pAM236 (domain B1b-1; H10, H45, Q60)” the same measures were 61 nM and 130 nM.
In the case of “Pentamer of SEQ ID NO:3 (ligand B2-1, pAM237) immobilized on cross-linked agarose beads (prototype separation matrix)”, the DBC Qb10% amounted to 57 mg/mL with Adalimumab [10], 67 mg/mL with Adalimumab [11] and 48.1 in assay [7]. Further, the figures for the DBC Qb10% 6 min RT in assay [12] and in assay [13] were 56.8 and 55.5, respectively.
